Assay results as given in a protein production outcome set (Wang et al. 2014).

Test: label from the status in PepcDB records

Sequence | protein production
MAEKKKKNKKQLSSFSILFIILIVLGIVTVLLNGQPFTPREIDGKMVDHVVGAKLSDIIMAPFNGFKDAIEINIFILVLGGFLNIVTQTGALEAGIQSVVKKLKGNELKIIPILMILFSIGGSTYGMAEETIPFYGLLSATMVAAGFDTFVAVGTVLLGAGSGVIGSTVNPFSTGVAMDALRGIGIQPNTGIILIVGAILWAASTSYSIFIVMRYAKKVKADKGSTILSLQEQEDMEKTYGQAASKEMPFTNRHKKILMVFAFCFVIMIVSLIPWNDFGVTIFKGWTSVLTGNSFGDWYFGDLAMWFFLLGIIAALIGRFTEKETIEAFIDGAKDMLSVVLIIVVARGASVLMSKTYLDSFILDKAAGLLQGLSPVLFVIGAFVLYLGLSFLIPSTSGLAYVSIPVMGALAKNIGLSPEVMVMIFASGCGLINLITPTSGVVMGGLEISKVQYATWTKFMAKPMIVLGLINLIILIGAMLLFS | failed
MDNLFTPSAKSVLVLAQEQAKYFKHQAVGTEHLLLALAIEKNGIANKVLQQYAVSEDDIREEIERFTGYGTLSNVGKDTYLPYSPKAKEILSVAGDEAKRLGANKIGTEHLLLAMLSDESILSSRILMNLNLDLGQTRKVVLRKLG | failed
ETTMPASRSLVDKPVHRFEIIPWNGKKVGYLMYNEFKAGPTTDSQAYNDDLRRAFRDFQTGGVNEFVLDLRYNTGGSLDCAQLLCTMLAPADKMNQLLALLRYSDKRVEANQDLTFNPELIQSGANLNLSTVYVLTTNATRGAAEMVINCLNPYMKVVLIGTKTAGEYVATKPFVHPTDRFILNLVVCNVYNAEEKSDYATGFKPTYEYNEDSYLSTYLPFGNTNETLLNAALKIMSGITDK | failed
MEVCSTVTTKKLSSLAKLILFTIQKVSDASRHKLLTTLDPHLLAKRGKILRKSLNEAVSTSHSRITCRPSDHQDVRSSFISPVPLQLEYEFSCSSTPPRRSYATTVSKGRRSNGSHNRPLINKRQRQAYIRYNTLPKVRDSIWDRHVAAAVFPDVASSTGTMESCHVDRAAEEFIQSFYRQLRLQKWMMAQEV | failed
MATIGSLLLWAITIYSYMIIGYILMSWFPNARESSFGQFLGSIVEPYLAPFRKIIPPLGMIDISPIVAIFALTFARYGVHAIFF | failed
MQFIEKIGIVLATYNPNLEYFEKQIQSIKQQSWKNWVCHIVDDCSHSEYQVGIKNIIDNDPRFICHFHSHNLNHYYNFERGLKYCAQDKSITAISLADQDDIWHDDKLKILLKKLRSQKAVLIHSDLELINSYDQTIHPSAWDFEGRKPHKLSHDLLLLRNVVTGCSVLFCTSLLTDVLPFPPQNKISWYHDWWIALVASHRGKIVHIHKPLVWYRIHNANNVGVLKDSGKIHCELLLLCRKKFKINGNSYLVHRDFSKAFYRRFKRELNELGYTNPFDDRKLDFGWHILKLLYKSLLVGYNSEGAALRIGVLKLIFDIQRSYRIILYHCLKTFKSYYKNSQ | failed
NKKIYVGMTADIMHPGLIHIIHEATKYGDVIVGLLTDKAIAEHKRLPYLTYDQRKEVVENIKGVCEVVPQEDWSYVPNLEKLKPDYIIHGDDWKTGPLREVREQVFEVMNAQGGKVIEIPYTRGINSSSLDKDIKAIGT | failed
MSSKQWRWIPNALTFLRMVLIVPFAGALLEGNYRLSLVIFFVAALTDAFDGFLARHFNWRSRLGAVADPLADKALLISAYLMLTITGVLPLWLFALVLGRDLVIVCGGLAFHYGIGRFDMEPSIPGKINTFVQILVALAIIILLAGLPMQPWVIDTGIWLVAVSALVSGGHYVAVWSLRAWRAKRS | failed
APHGPGLIYRQPNCDDPETEEAALVAIDYINQNLPWGYKHTLNQIDEVKVWPQQPSGELFEIEIDTLETTCHVLDPTPVARCSVR | failed
MHEESGPSWGMRGLRKWLGTAPETRDELLKLVQDSRRFLEPDTVAMLEGVLDLPATKVREVMTPRTSIISLQEDDELLDILHVLIESAHSRFPVFSSDQPDNVVGILLAKDLLPFLTEPSAKVDVRALMRQPLFVPESARSDQVLRMLKHTQTHIAVVIDEYGTTSGLVTLEDILEEIVGEIEDEHDNVDEEAQYIVPDHAHTTANSWMVQALTPIEHFNTVLDADFSDDEVETVGGLLLQEIGLVSDLQGQVIELDDWQFTIIEADARTIHLIRAVHK | failed
MGSSHHHHHHSSGRENLYFQGSQRPVDRNPPRINLMPTGANRVAMRNRGNNEADAALQALAQNGINMEDLRAALEAYIVWLRPIPLDIANALEGVGITPRFDNPEEAKVDNPLMNLSSALKRRLDA | not failed
MEVYSMNFALGVILAFSAAFTWALTSVLSKVSMRRVSPLTLNFLRLVIASGFYLPLIIYLNLIPSKGIMWWVIVVFSGIIGFMIGDWLFLEGMKLLGVSRANMLTTLHPIITMVLAHYLLGRPLNAYLFLGAGLIILAVLLLLSEKSESGGINARGVLLVVVAELLWTIAILITDWLVSNEPPVLIAALRISSGILGGLPFLPKMWREIRKLRLGDMGLVFVISLLGTIVGQYLFIKSISLVSSTVATPVTESTPIMASLLAVVFLREKITSKLVASMMLSFIGILIIGVLG | failed
MRRPVSKWALLALLFTALLAADQWTKYLAVERLTVVFERGGDETLAERVRGFYTYRHLEPLSTEPYYVWRPVWRMNYVENPGAAWGLFRGHSQFFRNAFFTLVSVAAVAFILHYYRKLRQDQRYLQVALGLVLAGAVGNFVDRLARRYVIDFIEWYWWNRPDIRWPTFNVADSLIVVGVAMLVLHPGSRREAARAPARRDAAAERV | failed
MAEEAKAKGNAAFSSGDFTTAINHFTEAIALAPTNHVLFSNRSAAHASLHQYAEALSDAKETIKLKPYWPKGYSRLGAAHLGLNQFELAVTAYKKGLDVDPTNEALKSGLADAEASVARSRAAPNPFGDAFQGPEMWTKLTSDPSTRGFLQQPDFVNMMQEIQKNPSSLNLYLKDQRVMQSLGVLLNVKFRPPPPQGDEAEVPESDMGQSSSNEPEVEKKREPEPEPEPEVTEEKEKKERKEKAKKEKELGNAAYKKKDFETAIQHYSTAIEIDDEDISYLTNRAAVYLEMGKYNECIEDCNKAVERGRELRSDYKMVARALTRKGTALTKMAKCSKDYEPAIEAFQKALTEHRNPDTLKRLNDAERAKKEWEQKQYFDPKLGDEEREKGNDFFKEQKYPEAIKHYTEAIKRNPNDHKAYSNRAASYTKLGAMPEGLKDAEKCIELDPTFSKGYSRKAAVQFFLKEYDNAMETYQAGLEHDPSNQELLDGVKRCVQQINKANRGDLTPEELKERQAKGMQDPEIQNILTDPVMRQVLSDLQENPSAAQKHMQNPMVMNKIQKLISAGIVQMK | failed
VPPDTLHSLPKSQVKRQEVISELLVTEAAHVRMLRVLHDLFFQPMAECLFFPLEELQNIFPSLDELIEVHSLFLDRLMKRRQESGYLIEEIGDVLLARFDGAEGSWFQKISSRFCSRQSFALEQLKAKQRKDPRFCAFVQEAESRPRCRRLQLKDMIPTEMQRLTKYPLLLQSIGQNTEEPTEREKVELAAECCREILHHVNQAVRDMEDLLRLKDYQRRLDLSHLRQSSDPMLSEFKNLDITKKKLVHEGPLTWRVTKDKAVEVHV | failed
SRIEERKAIIGLYNYAHEMTHGASDREYPRLGQMIVDYENPLKKMMEEFVPHSKSLSDALISLQMVYPRRNLSADQWRNAQLLSLISAPSTMLNPAQSDTMPCEYLSLDAMEKWIIFGFILCHGILNTDATALNLWKLALQSSSCLSLFRDEVFHIHKAAEDLFVNIRGYNKRINDIRECKEAAVSHAGSMHRERRKFLRSALKELATVLSDQPGLLGPKALFVFMALSFARDEIIWLLRHADNMPKKSADDFIDKHIAELIFYMEELRAHVRKYGPVMQRYYVQYLSGFDAVVLNELVQNLSVCPEDESIIMSSFVNTMTSLSVKQVEDGEVFDFRGMRLDWFRLQAYTSVSKASLGLADHRELGKMMNTIIFHTKMVDSLVEMLVETSDLSIFCFYSRAFEKMFQQCLELPSQSRYSIAFPLLCTHFMSCTHELCPEERHHIGDRSLSLCNMFLDEMAKQARNLITDICTEQCTLSDQLLPKHCAKTISQAVN | failed
KVVFAKEQPAHREVQAEAGASATLSCEVAQAQTEVTWYKDGKKLSSSSKVRVEAVGCTRRLVVQQAGQAEAGEYSCEAGGQQLSFRLQVAGQCFG | not failed
SRFLVLGGAGSIGQAVTKEIFKRNPKKLHVVDISENNMVELVRDIRSSFGYIDGDFQTFALDIGSLEYDAFIKADGKFDYVLNLSALKHVRSEKDPYTLMRMIDVNVFNTDKTIQQSIDAGAKKYFCVSTDKAANPVNMMGASKRIMEMFLMRKSEQIAISTARFANVAFSDGSLLHGFNQRIQKRQPIVAPND | failed
MEYGHHARPDSKRPLDEGSPAAAGLTSKKANEALTRNRELTTVLVKNLPKSYNQNKVYKYFKHCGPIIHVDVADSLKKNFRFARIEFARYDGALAAITKTHKVVGQNEIIVSHLTECTLWMTNFPPSYTQRNIRDLLQDINVVALSIRLPSLRFNTSRRFAYIDVTSKEDARYCVEKLNGLKIEGYTLVTKVSNPLEKSKRTDSATLEGREIMIRNLSTELLDENLLRESFEGFGSIEK | not failed
MSEELMISPAAPAAPAAGSALTSAQFRKLAEVPPEIEWFANIDSLQTRRAYQNDLRGFMAFAGIVSPEDFRLITRSHVLAWRKRLEEEQLGGATIRRKLAALSSLFEYLCEANAVTHNPVKGVKRPPVESWQGKTPALGDVQARALLEAPNAKTLKGKRDRAILSALLYHGIRREELARLKVKDYNQSRRGVPHLRIKGKGGKMRFIPTHPGTLTLIEEYLEAAGHGHDPDAPLFRPVKNNVHGHTLTALTPDSIYFEVVLKYLRKLGIFGENMGPHVMRATAATNALDNGADIAKVQEWLGHANIATTRIYDHRKTRPEDSPTFKVSY | failed
MSLVLVDHPRPGVALITLNRPERMNSMAFDVMVPLKEALQKVTYDNAVRVVVLTGAGRGFSSGADHKSAGTVPHVEGLTRPTYALRSMEILDEVILALRRLHQPVIAAVNGPAIGGGLCLALAADIRVASTSAYFRAAGINNGLTASELGLSYLLPRAIGSSRAFEIMLTGRDVTAEEAERIGLVSCQVPEEQLLDTCYAIAARIAAFSRPGIELTKRTLWSGLDAGSLEGHMQAEGLGQLFVRLLTANFEEAVAARAERRPPVFTDDK | failed
MSQDNYFSRMLRGEAPVPAVAGTLGGVIRAVDLEAGSLESDYVATDAFLNPVGQVQGGMLGAMLDDVTAMLVTATLEDGASCSTLNLNLSFLRPAQAGLLRGRARLERRGRNVCNVVGELSQDGKLVATATATCMVARRA | not failed
MTPRHQRPLARRKLLVALGGAVVAAPVAAAVAPHALAGIGPDGPAPAAAGALPLTIVNDTGSFGNADVHVYIVGNVDGRQVRVTPDGTVAPVALSDNGADGYTDYAIGLSGSGETKLSLPHLSGRIYVSLGEKLKFKVVADGAGNAALQYPAGWVESDPNYAVLHDCAEFTYNAAGMFCNTTMVDMFSVPLAIRLTGADDRTTGTVRPGGRAAVFEAVRKVEEFAPLVVDDTRVIAPGHGLDAGLFPKDYLAPYIDEVWSTYTGKDLRITTNAGTFTGRVRGDRLTFDGPAQVSFAKPSTRDVLFCDGNLAAPNDGTTGPVAAVLGAGFNRSTLVSSAEQPTTDPATFYGTALTNHYAKAVHAATEDGRAYGFAFDDVADFASYIQDTAPTGIRLTLGAFLEHHHHHH | failed
MVTSEGLASVDSWLYRQGFNVDSWLLSDTFSHDNDLLARALHTTVTAPHTLTPSSAFFDSSAVSHPSSTNTLSSTVSGASDPEIIGGGAKRKRNCLLTDGKAAKRRARASKKSQTTFITADPSNFRQMVQQVTGAKYIDDSSSFGIFDPIVKPEPLRFVNKLPCGPSDRSTAVPMLDTSAFLSNHHQENLAVGNAFSGNSSSVGLPSGKPSATADPGGSAVEFDNYPTFPTLESWKVM | failed
QDVLRGTLNLYCSVTAAYSHLPQLLERFRQEHPFVEIALTTGDAANALAEIQQNRADIAIAALPDPFPATLHFAKIDDVPLSLIAPTMRCAVQQQISQTQIDWARVPFIIPDHGPGRRRADNWFKQMGISPNIYAQVSGQEAIASMVALG | failed
